From patent US11795460B2, “Compositions and methods for TTR gene editing and treating ATTR amyloidosis” (Intellia Therapeutics, Inc., priority 2017, dated 2023)
Strand notation (5' to 3'): a small letter for the sugar, then the base; units joined by * are phosphorothioate-linked, units joined directly phosphodiester-linked; [ ] holds rarer units or linkages, { } end groups; capitals alone tell only the bases. m = 2'-O-methyl; r = 2'-OH (RNA)

B1: G000499: TTR sgRNA modified sequence, Human, SEQ ID No. 106; guide sequence of CR005303 (nucleic acid)
guide: mU*mG*mA*rArUrCrCrArArGrUrGrUrCrCrUrCrUrGrArGrUrUrUrUrArGrAmGmCmUmAmGmAmAmAmUmAmGmCrArArGrUrUrArArArArUrArArGrGrCrUrArGrUrCrCrGrUrUrArUrCrAmAmCmUmUmGmAmAmAmAmAmGmUmGmGmCmAmCmCmGmAmGmUmCmGmGmUmGmCmU*mU*mU*mU
B2: G000480: TTR sgRNA modified sequence, Human, SEQ ID No. 87; guide sequence of CR003353 (nucleic acid)
guide: mA*mA*mA*rGrGrCrUrGrCrUrGrArUrGrArCrArCrCrUrGrUrUrUrUrArGrAmGmCmUmAmGmAmAmAmUmAmGmCrArArGrUrUrArArArArUrArArGrGrCrUrArGrUrCrCrGrUrUrArUrCrAmAmCmUmUmGmAmAmAmAmAmGmUmGmGmCmAmCmCmGmAmGmUmCmGmGmUmGmCmU*mU*mU*mU
B3: G000488: TTR sgRNA modified sequence, Human, SEQ ID No. 95; guide sequence of CR003346 (nucleic acid)
guide: mA*mA*mA*rGrUrUrCrUrArGrArUrGrCrUrGrUrCrCrGrGrUrUrUrUrArGrAmGmCmUmAmGmAmAmAmUmAmGmCrArArGrUrUrArArArArUrArArGrGrCrUrArGrUrCrCrGrUrUrArUrCrAmAmCmUmUmGmAmAmAmAmAmGmUmGmGmCmAmCmCmGmAmGmUmCmGmGmUmGmCmU*mU*mU*mU
B4: G000489: TTR sgRNA modified sequence, Human, SEQ ID No. 96; guide sequence of CR003344 (nucleic acid)
guide: mU*mU*mU*rGrArCrCrArUrCrArGrArGrGrArCrArCrUrGrUrUrUrUrArGrAmGmCmUmAmGmAmAmAmUmAmGmCrArArGrUrUrArArArArUrArArGrGrCrUrArGrUrCrCrGrUrUrArUrCrAmAmCmUmUmGmAmAmAmAmAmGmUmGmGmCmAmCmCmGmAmGmUmCmGmGmUmGmCmU*mU*mU*mU
B5: G000502: TTR Cyno specific sgRNA modified sequence, SEQ ID No. 114; guide sequence of CR000689; cross homologous between mouse and cyno (nucleic acid)
guide: mA*mC*mA*rCrArArArUrArCrCrArGrUrCrCrArGrCrGrGrUrUrUrUrArGrAmGmCmUmAmGmAmAmAmUmAmGmCrArArGrUrUrArArArArUrArArGrGrCrUrArGrUrCrCrGrUrUrArUrCrAmAmCmUmUmGmAmAmAmAmAmGmUmGmGmCmAmCmCmGmAmGmUmCmGmGmUmGmCmU*mU*mU*mU
B6: G000481: TTR sgRNA modified sequence, Human, SEQ ID No. 88; guide sequence of CR003345 (nucleic acid)
guide: mU*mC*mU*rArGrArArCrUrUrUrGrArCrCrArUrCrArGrGrUrUrUrUrArGrAmGmCmUmAmGmAmAmAmUmAmGmCrArArGrUrUrArArArArUrArArGrGrCrUrArGrUrCrCrGrUrUrArUrCrAmAmCmUmUmGmAmAmAmAmAmGmUmGmGmCmAmCmCmGmAmGmUmCmGmGmUmGmCmU*mU*mU*mU
B7: G000482: TTR sgRNA modified sequence, Human, SEQ ID No. 89; guide sequence of CR003365 (nucleic acid)
guide: mU*mG*mU*rArGrArArGrGrGrArUrArUrArCrArArArGrGrUrUrUrUrArGrAmGmCmUmAmGmAmAmAmUmAmGmCrArArGrUrUrArArArArUrArArGrGrCrUrArGrUrCrCrGrUrUrArUrCrAmAmCmUmUmGmAmAmAmAmAmGmUmGmGmCmAmCmCmGmAmGmUmCmGmGmUmGmCmU*mU*mU*mU
B8: G000486: TTR sgRNA modified sequence, Human, SEQ ID No. 93; guide sequence of CR003339 (nucleic acid)
guide: mA*mC*mA*rCrArArArUrArCrCrArGrUrCrCrArGrCrArGrUrUrUrUrArGrAmGmCmUmAmGmAmAmAmUmAmGmCrArArGrUrUrArArArArUrArArGrGrCrUrArGrUrCrCrGrUrUrArUrCrAmAmCmUmUmGmAmAmAmAmAmGmUmGmGmCmAmCmCmGmAmGmUmCmGmGmUmGmCmU*mU*mU*mU

System: human TTR
Test: Serum human TTR ELISA in humanized TTR mice (Table 26)
Type: in vivo, mouse
Settings: for Serum TTR(% TSS): Table 26, serum human TTR, LNP Formulation Numbers 6-16, 1 mg/kg (total RNA content)
Protocol: Blood was collected and the serum was isolated as indicated. The total mouse TTR serum levels were determined using a Mouse Prealbumin (Transthyretin) ELISA Kit (Aviva Systems Biology, Cat. OKIA00111); rat TTR serum levels were measured using a rat specific ELISA kit (Aviva Systems Biology catalog number OKIA00159); human TTR serum levels were measured using a human specific ELISA kit (Aviva Systems Biology catalog number OKIA00081); each according to manufacture's protocol. Briefly, sera were serial diluted with kit sample diluent to a final dilution of 10,000-fold, or 5,000-fold when measuring human TTR in mouse sera. 100 ul of the prepared standard curve or diluted serum samples were added to the ELISA plate, incubated for 30 minutes at room temperature then washed 3 times with provided wash buffer. 100 uL of detection antibody was then added to each well and incubated for 20 minutes at room temperature followed by 3 washes. 100 uL of substrate is added then incubated for 10 minutes at room temperature before the addition of 100 uL stop solution. The absorbance of the contents was measured on the Spectramax M5 plate reader with analysis using SoftmaxPro version 7.0 software. Serum TTR levels were quantitated off the standard curve using 4 parameter logistic fit and expressed as ug/mL of serum or percent knockdown relative control (vehicle treated) animals.
The level of human TTR in serum was measured in the mice provided formulation numbers 6-8, 10-13, and 15-16. FIG. 14A is a repeat of FIG. 13 provided for comparison purposes. Knockdown of serum human TTR was detected for each formulation tested, which correlated with the amount of editing detected in liver (See FIG. 14A vs 14B, Table 26).
In another set of experiments, humanized TTR mice were dosed with LNP formulations across a range of doses with guides G000480, G000488, G000489 and G000502. The formulations contained Cas9 mRNA (SEQ ID NO: 1) in a 1:1 ratio by weight to the guide. The LNPs contained Lipid A, Cholesterol, DSPC, and PEG2k-DMG in a 50:38:9:3 molar ratio, respectively, and having a N:P ratio of 6. Dosing was at 1, 0.3, 0.1, or 0.03 mg/kg (n=5/group). The LNPs were prepared using the cross-flow procedure described above and purified and concentrated using PD-10 columns and Amicon centrifugal filter units, respectively. Liver editing results were determined using primers designed to amplify the region of interest for NGS analysis and serum human TTR levels were measured as described above. Results for liver editing are shown in FIG. 26A and serum human TTR levels in FIG. 26B-C.
(§1) In another set of experiments, humanized TTR mice were dosed with LNP formulations across a range of doses with guides G000481, G000482, G000486 and G000499. The formulations contained Cas9 mRNA (SEQ ID NO: 1) in a 1:1 ratio by weight to the guide. […] Dosing was at 1, 0.3, or 0.1 mg/kg (n=5/group). The LNPs were prepared using the cross-flow procedure described above and purified and concentrated using PD-10 columns and Amicon centrifugal filter units, respectively. Liver editing results were determined using primers designed to amplify the region of interest for NGS analysis and serum human TTR levels were measured as described above. Results for liver editing are shown in FIG. 27A and serum human TTR levels in FIG. 27B-C.
as §1, with “guides G000480,” for “guides”, “G000486, G000499” for “G000482, G000486”, “G000502.” for “G000499.”, “1:2” for “1:1”, “Results for liver editing are shown in FIG. 27A and serum human TTR levels in FIG. 27B-C.” left out

[1] = 1, 0.3, or 0.1 mg/kg, Cas9 mRNA (SEQ ID NO: 1) 1:1 by weight to guide, FIG. 27B-C
[2] = 1, 0.3, or 0.1 mg/kg, Cas9 mRNA (SEQ ID NO: 1) 1:2 by weight to guide, FIG. 28B-C
[3] = 1, 0.3, 0.1, or 0.03 mg/kg, Cas9 mRNA (SEQ ID NO: 1) 1:1 by weight to guide, FIG. 26B-C

Row | Molecule | Serum human TTR levels, dose response [1] | Serum human TTR levels, dose response [2] | Serum TTR(% TSS) | Serum human TTR levels, dose response [3]
1 | B1 | A dose response for both editing and serum TTR levels was evident | A dose response for both editing and serum TTR levels was evident | 8.39 % TSS | –
2 | B2 | – | A dose response for both editing and serum TTR levels was evident | – | A dose response for both editing and serum TTR levels was evident
3 | B3 | – | – | – | A dose response for both editing and serum TTR levels was evident
4 | B4 | – | – | – | A dose response for both editing and serum TTR levels was evident
5 | B5 | – | A dose response for both editing and serum TTR levels was evident | – | A dose response for both editing and serum TTR levels was evident
6 | B6 | A dose response for both editing and serum TTR levels was evident | A dose response for both editing and serum TTR levels was evident | 10.52 % TSS | –
7 | B7 | A dose response for both editing and serum TTR levels was evident | – | – | –
8 | B8 | A dose response for both editing and serum TTR levels was evident | A dose response for both editing and serum TTR levels was evident | – | –
